Here are results for 18 molecules from US20260258115A1 (MAPP BIOPHARMACEUTICAL, published 2026).

Bounds are passed on as bounds.

Sequences and labels used below:
B1: ADI-41606 (antibody, V domains shown)
VH: EVQLLESGPGLVKPSETLSLTCTVSGGSVSSGGYYYTWIRQPPGKGLEWIGYAFYSGDTNYNPSLKSRVTISVDTSKNQFSLKLTSVTAADTAVYYCASTYTFGASGFDFWGQGTLVTVSS
VL: DIVMTQSPSFMSASVGDRVTITCRASQGISNWLLWYQQKPGKAPKLLIYAASSLQSGVPSRFSGSRSGTDFTLTISSLQPEDFAIYYCQQANSFPLTFGQGTRLEIK
notes: also called Ab 880; Antibody Number 880
B2: ADI-41626 (antibody, V domains shown)
VH: EVQLQESGPGLVKPSGTLSLTCAVAGGFISSGNWWSWIRQPPGKGLEWIGEVYHSGRTSYNPSLKSRVTISVDNSKNQFSLKMSSVTAADTAVYYCARVESYSSSGYYIAYFDNWGQGNLVTVSS
VL: DIVLTQSPSSLSASVGDRVTITCRASQSISRYLSWYQQKPGKAPKLLIYAAFSLQTGVPSRFSGSGSGTDFTLTISSFQTEDSATYYCQQSYSAPVTFGGGTKVEIK
B3: ADI-41600 (antibody, V domains shown)
VH: EVQLLESGGNMVQPGKSLRLSCAASGFTFSNYGMHWVRQAPGKGLEWVAVISKDGNNEHYADSVRARFTVSRDNSKNTLFLQMNSLRPEDTAVYYCAIGGLSGSYFGEYFQHWGRGTLVTVSS
VL: DIQMTQSPSSMSASLGDRVTITCRASQGISTWLAWYQQKPGEAPKLLIYAAFGLQSGVPSRFSGSGSGTDFTLTINNLQPEDFATYYCQQAISFPFTFGGGTKVEIK
notes: also called Ab 874; Antibody Number 874
B4: ADI-41644 (antibody, V domains shown)
VH: QVQLQQWGPGLVKPSETLSLSCAVSGGSLRGHFWSWIRQPPGKGLEWIGEINHGGRTNFNPSLKSRLTISEDSSKNQFSLKLSSVTAADTAVYYCARRWGYDSSGYYFFDYWGQGTLVTVSS
VL: EIQMTQSPATLSVSPGERATLSCRASQTLGFNLAWYQQKPGQSPRLLIYGASTRATGIPARFSGSGAGTEFTLTISSLQSEDFAVYFCQQYSNYYTFGQGTKVEIK
notes: also called Ab 887; Antibody Number 887
B5: ADI-41604 (antibody, V domains shown)
VH: QVTLKESGAEVKKPGASVKVSCKASGYTFTGYYMHWVRQAPGQGLEWMGRINPNSGGTNYAQKFQGRVTMTRDTSISTAYMELSRLRSDDTAVYYCAREASRFGGFDYWGQGTLVTVSS
VL: DIVLTQSPSSLSASVGDRVTITCQASQDISNYLNWYQQKPGKAPKLLIYDASNLETGVPSRFSGSGSGTDFTFTISSLQPEDIATYYCQQYDNLLGYTFGQGTKVEIK
B6: ADI-41660 (antibody, V domains shown)
VH: EVQLVQSGAEVKKPGSSVKVSCKASGGTFSRNAISWVRQAPGQGLEWMGGIIPIFGAANYPQKFQGRVTITADKSTSTAYMELSSLRSEDTALYYCARTMGEMTTTPVSIYYYGMDVWGQGTTVTVSS
VL: QSVLTQPPSVSAAPGQKVTISCSGSSSNIGINYVSWYQQLPGTAPKLLIYDNNKRPSGIPDRFSGSKSGTSATLGITGLQTGDEADYYCGTWDSSLSAGYVFGSGTKLTVL
B7: ADI-41605 (antibody, V domains shown)
VH: QVQLVESGPGLVKPSQTLSLTCSVSGGSISSDDHYWSWIRQHPGKGLEWIGYIYYSGYTNYNPSLKSRVTISVDTSKNQFSLRLSSVTAADTAVYYCARETDITIFGVVPVGYFDYWGQGTLVTVSS
VL: DIQVTQSPDSLAVSLGERATINCKSSQSILSSTNNKNFLAWYQQKPGQPPKLLLHWASTREFGVPDRFSGSGSGTEFTLTISSLQAEDVAVYYCQQYYTTPYTFGQGTKVEIK
notes: also called Ab 879; Antibody Number 879
B8: ADI-41607 (antibody, V domains shown)
VH: EVQLVESGPGLVKPSQTLSLTCTVSGGSINIGGYYWSWIRQHPEKGLEWIGYIYYSGTTYYNPSLESRVTISIDTSKNQFSLNLSSVTAADTAVYYCASVDQIGATRFDYWGQGTLVTVSS
VL: QPVLTQPRSVSGSPGQSVTLSCTGTSSDVGTYNYVSWYQHHPGKAPKLIIYDVNKRPSGVPDRFSGSKSGNTASLTISGLQAEDEADYYCCSYAGSYTLNYVFGTGTKLTVL
B9: ADI-41602 (antibody, V domains shown)
VH: EVQLQESGPGLVKPSETLSLTCTVSGGSLSGYYWSWIRQPPGKGLEWIGYIYHSGSTNYNPSLESRVTISVDTSKNQFSLKVNAVTAADTAVYYCAKVERLLRFDPWGQGTLVTVSS
VL: QSVLIQPASVSGSPGQSITISCIGSSSDVGGYNYVSWYQHYPGKAPKLMIYDVSNRPSGVSNRFSGSKSGNTASLTISGLQAEDEADYYCSSYTSSTSYVFGTGTKVTVL
notes: also called Ab 876; Antibody Number 876
B10: ADI-41593 (antibody, V domains shown)
VH: QVQLVQSGVEVKKPGESLKISCKGSGYSFTNYWIAWVRQMPGKGLEWMGIIYPGDSDTRYSPSFQGQVTISADKSISTAYVQWSSLKASDTAIYYCARGDILTNSGPDAFDIWGQGTMVTVSS
VL: DIQMTQSPSSFSASTGDRVTITCRASQAISSYLAWFQQKPGKAPKLLIYAASTLQSGVPSRFSGSGSGTDFTLTISCLQSEDFATYYCQQYYSYPLTFGGGTKVEIK
notes: also called Ab 867; Antibody Number 867
B11: ADI-41588 (antibody, V domains shown)
VH: QVQLVESGPTLVKPTQTLTLTCTFSGFSLSTNGVGVAWIRQPPGKALEWLAIIYWDDDKRYSPSLKSRLTITKDTSKNQVVLTVTDMDPVDTATYYCAHTIGVPAATRFDYWGQGTLVTVSS
VL: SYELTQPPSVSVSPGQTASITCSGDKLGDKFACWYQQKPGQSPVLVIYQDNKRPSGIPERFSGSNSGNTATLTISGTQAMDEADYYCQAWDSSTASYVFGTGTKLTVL
B12: ADI-41611 (antibody, V domains shown)
VH: EVQLVESGGGLVKPGGSLRLSCAASGFTFSDYSMNWVRQAPGKGLEWVSSTSSGSTYIYYADSVKGRFTISRDNGKNSLYLQMNSLRAEDTAVYYCARAFRLGYDALDIWGQGTMVTVSS
VL: DIRMTQSPSSLSASVGDRVTIICRASQSISNYLNWYQQKPGKAPKLLIYVASNLQSGVPSRFSGSGSGTDFTLTISSLQPEDFATYYCQQTYSPPPTFGGGTKLEIK
notes: also called Ab 885; Antibody Number 885
B13: ADI-41586 (antibody, V domains shown)
VH: QVQLQQWGAGLLKPSETLSLTCAVYGGSFSGYSWSWIRQPPGKGLEWIGDIDHDGSTYYNSSLKSRVTMSIDTSKNQFSLKLSSVTAADTAVYYCARVGGNSGYWGQGTLVTVSS
VL: not shown
notes: also called Ab 860; Antibody Number 860
B14: ADI-41608 (antibody, V domains shown)
VH: QVQLVQSGDEVKKPGESLKISCKGSEHTFTNYWIAWVRQMPGKGLECMGVIWPDDSDTKYSPSFQGQVTISADKSINTAYLHLSSLRASDTAMYYCATSKFRTGFDFWGQGTLVTVSS
VL: NFMLTQPHSVSESPGKTVIISCTRSSGNIASNYVQWYQQRPGSSPTTVVYEDNQRPSGVPDRFSGSIDSSSNSASLTISGLKTEDEADYYCQSYDSSNPWVFGGGTKLTVL
B15: ADI-41592 (antibody, V domains shown)
VH: EVQLVESGSELKKPGASVKVSCKASGYTFRTYVMNWVRQAPGQGLEWMGWINTNTGNPTYAQGFTGRFVFSLDTSVSTAYLQISSLKAEDTAVYYCARESIDDYDSSGYGRTFDYWGQGTLVTVSS
VL: SYELTQPPSVSVSPGQTASIPCSGDKVGKTYVYWYQQTPGQSPGLVIYQDTKRPSGIPERFSGSSSGNTATLTISGTQTMDEADYYCQAWDTSTASYVFGTGTKLTVL
notes: also called Ab 866; Antibody Number 866
B16: ADI-41587 (antibody, V domains shown)
VH: QVQLVQSGAGLLKPSETLSLTCAVYGGSFSGYSWSWIRQPPGKGLEWIGEINYSVSTSYNSSLKSRVSISVDTSKNQFSLKLTSVTAADTAVYYCARVGGAVADWGQGTLVTVSS
VL: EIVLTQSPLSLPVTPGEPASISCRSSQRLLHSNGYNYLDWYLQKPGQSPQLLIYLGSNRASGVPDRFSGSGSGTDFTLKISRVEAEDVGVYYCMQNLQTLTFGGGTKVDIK
B17: ADI-41603 (antibody, V domains shown)
VH: EVQLVESGGGLVKPGRSLRLSCTTSGFTFGDYAMSWFRQAPGKGLEWVGFIRSKPYGGATAYAASVRGRFTISNDDSKSIAYLQMESLKIEDTAVYYCARDYDDFFFYDYWGQGTLVTVSS
VL: DIRMTQSPATLSVSPGERATLSCRASENIYSNLAWYQQKPGQAPRLLIYGASTRATGLPARFSGSGSGTEFTLTISSLQSEDFAVYYCQQYNNWPAFGGGTKVEIK
notes: also called Ab 877; Antibody Number 877
B18: ADI-41596 (antibody, V domains shown)
VH: QVQLQQWGAGLLKPSETLSLTCAVYGDSFSGYFWTWIRQPPGKGLEWIGEINLSGSTNYNPSLKSRVTILVDTSKNQFSLKLSSVTAADTAVYYCARGLHVSDDQDSSGYYFHPGSFDYWGQGTLVTVSS
VL: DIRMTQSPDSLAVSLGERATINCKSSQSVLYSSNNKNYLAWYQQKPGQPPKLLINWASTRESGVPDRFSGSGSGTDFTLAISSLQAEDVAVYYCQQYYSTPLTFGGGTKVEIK
notes: also called Ab 870; Antibody Number 870

The first experiment has as its target RSV F on RSV-A2 virus (Respiratory syncytial virus, RSV-A2, UniProt P03420 26-574). Put plainly: cell-based or functional assay.
For B1, the “Neutralization IC50 (RSV subtype A)” value is > 25 µg/mL.
On the same count and under the same terms, in the case of B2 it was > 25 µg/mL.
As to B3, the “Neutralization IC50 (RSV subtype A)” value was > 25 µg/mL.
The same measure, in the same setting: to B4 belongs > 25 µg/mL.
With B5, the “Neutralization IC50 (RSV subtype A)” value was > 25 µg/mL.
Turning to B6, the “Neutralization IC50 (RSV subtype A)” value is > 25 µg/mL.
On to B7, for which the “Neutralization IC50 (RSV subtype A)” value was > 25 µg/mL.
The same measure, in the same setting: in the case of B8 it was > 25 µg/mL; in that of B9, > 25 µg/mL.
For the molecule B10, the “Neutralization IC50 (RSV subtype A)” value is > 25 µg/mL.
In the case of B11, the “Neutralization IC50 (RSV subtype A)” value was > 25 µg/mL.
Regarding B12, the “Neutralization IC50 (RSV subtype A)” value was > 25 µg/mL.
Consider B13, for which the “Neutralization IC50 (RSV subtype A)” value was determined as 0.402 µg/mL.
Still for that read-out and setting: in the case of B14 it was > 25 µg/mL; in that of B15, > 25 µg/mL.
Same read-out and setting: to B16 belongs 0.664 µg/mL; to B17, > 25 µg/mL; to B18, 0.0537 µg/mL.

In the next experiment the target is RSV prefusion F (preF), DS-Cav1 (Respiratory syncytial virus, UniProt P03420 26-513). Put plainly: BLI, IgG on anti-human IgG sensor, 100 nM antigen. A general note: Biolayer interferometry detects binding as a change in optical thickness at a sensor tip.
In the case of B1, binding was put at a Kd of 3.39 nM.
On the same count and under the same terms, in the case of B2 it was 2.6 nM; in that of B3, 4.93 nM.
Still for that read-out and setting: in the case of B4 it was 3.03 nM; in that of B5, 17.8 nM; in that of B6, 2.94 nM.
For B7, the Kd (as a rule, the constant that tells how readily two partners part at equilibrium) was 3.18 nM.
Still for that read-out and setting: in the case of B8 it was 4.24 nM; in that of B9, 2.85 nM.
Same read-out and setting: in the case of B10 it was 1.83 nM; in that of B11, 3.33 nM.
In turn, B12 displayed a Kd of 3.09 nM.
On the same count and under the same terms, in the case of B13 it was 0.538 nM.
Still for that read-out and setting: to B14 belongs 1.93 nM.
On the same count and under the same terms, to B15 belongs 3.74 nM; to B16, 1.4 nM.
Molecule B17 gave a Kd of 3.49 nM.
Same read-out and setting: in the case of B18 it was 0.305 nM.

The next experiment deals with RSV postfusion F (postF), F ΔFP (Respiratory syncytial virus, UniProt P03420 26-513). Put plainly: BLI, IgG on anti-human IgG sensor, 100 nM antigen.
Take B1: binding was characterised by a dissociation constant (Kd) of 1.03 nM.
On the same count and under the same terms, in the case of B2 it was 0.891 nM; in that of B3, 0.755 nM.
On the same count and under the same terms, in the case of B4 it was 1.1 nM; in that of B5, 29.2 nM; in that of B6, 0.955 nM.
The same measure, in the same setting: in the case of B7 it was 0.55 nM.
B8 registered a Kd of 0.709 nM.
The same measure, in the same setting: in the case of B9 it was 0.455 nM.
Regarding B10, the Kd was found to be 0.53 nM.
Same read-out and setting: in the case of B11 it was 0.505 nM.
B12 came in with a Kd of 0.611 nM.
Regarding B13, the Kd worked out at 0.779 nM.
The same measure, in the same setting: in the case of B14 it was 0.285 nM.
With B15, the Kd worked out at 0.44 nM.
Molecule B16 registered a Kd of 2.09 nM.
Consider B17, for which the Kd is 0.49 nM.
B18 showed a Kd of 0.437 nM.
